Our source for the fold IC50 on wildtype K-Ras against that for K-Ras(G12D) values is patent publication US20230242586A1, “RAS INHIBITORS AND USES THEREOF” (The Regents of the University of California, priority 2020, published 2023).

Where only a bound is given, the exact number is not on record here.

The assay has as its target biotinylated wildtype K-Ras·GppNHp (His-Avi-TEV-KRAS (wildtype)) (human). Description: TR-FRET Ras-Raf interaction assay (competition); reference K-Ras(G12D). On the technique in general: Time-resolved FRET reads energy transfer from a long-lived donor to a nearby acceptor.

With “bicyclic variant of KD2 (Val3 and Arg9 replaced with azidoalanine and propargylglycine) (peptide)”, the fold IC50 on wildtype K-Ras against that for K-Ras(G12D) is greater than 20 fold. “bicyclic variant of KD2 (Val3 and Arg9 replaced with two cysteines) (peptide)”: the fold IC50 on wildtype K-Ras against that for K-Ras(G12D) is greater than 20 fold.
